According to article PMC10858392 (Cell reports, 2023):

Columns and labels:
Test in all cases: ELISA
human insulin = human insulin (Homo sapiens, UniProt P01308)
[1] = target: albumin from human serum, low endotoxin (Homo sapiens, UniProt P02768)
[2] = target: lysozyme from chicken egg white (Gallus gallus, UniProt P00698)
ubiquitin (in-house) = ubiquitin (in-house) (Homo sapiens, UniProt P0CG47)

Measured: binding result

Sequence of human insulin (P01308 whole entry, looked up): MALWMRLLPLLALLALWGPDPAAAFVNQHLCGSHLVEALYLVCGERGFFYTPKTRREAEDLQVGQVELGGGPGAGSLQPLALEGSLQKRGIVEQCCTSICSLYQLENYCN
Sequence of albumin from human serum, low endotoxin (P02768 25-609): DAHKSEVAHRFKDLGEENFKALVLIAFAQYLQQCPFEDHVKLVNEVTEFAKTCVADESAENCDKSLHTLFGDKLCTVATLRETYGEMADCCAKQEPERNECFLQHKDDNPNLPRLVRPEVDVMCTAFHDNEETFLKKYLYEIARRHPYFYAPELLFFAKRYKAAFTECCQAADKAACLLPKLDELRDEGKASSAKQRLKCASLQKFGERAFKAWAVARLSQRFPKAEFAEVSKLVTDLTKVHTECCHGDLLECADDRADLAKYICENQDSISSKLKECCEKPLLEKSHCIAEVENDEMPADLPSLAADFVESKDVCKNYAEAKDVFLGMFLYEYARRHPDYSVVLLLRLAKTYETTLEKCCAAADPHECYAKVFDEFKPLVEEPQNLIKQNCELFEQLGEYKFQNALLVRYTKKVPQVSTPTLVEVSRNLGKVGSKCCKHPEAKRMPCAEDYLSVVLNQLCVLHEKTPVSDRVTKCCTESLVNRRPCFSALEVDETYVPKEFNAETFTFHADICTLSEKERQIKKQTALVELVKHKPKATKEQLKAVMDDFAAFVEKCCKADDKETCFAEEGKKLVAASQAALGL
Sequence of lysozyme from chicken egg white (P00698 19-147): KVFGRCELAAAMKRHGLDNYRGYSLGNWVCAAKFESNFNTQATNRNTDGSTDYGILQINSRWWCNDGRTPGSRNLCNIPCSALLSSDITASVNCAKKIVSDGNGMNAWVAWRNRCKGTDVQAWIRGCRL

B1: 338E6 mAb (polyreactive mouse IgA monoclonal antibody, full-length) (antibody, V domains shown)
VH: EVKLEESGGDLVKPGGSLKLSCAASGFTFSSYGMSWVRQTPDKRLEWVATISSGGSYTYYPDSVKGRFTISRDNAKNTLYLQMSSLKSEDTAMYYCARRGFYFDYWGQGTTLTVSS
VL: ETTVTQSQKFMSTSVGDRVSVTCKASQNVGTNVAWYQQKPGQSPKALIYSASYRYSGVPDRFTGSGSGTDFTLTISNVQSEDLAEYFCQQYNSYPLTFGQGTKVEIK
binds: all assays above

B2: 43G10 mAb (polyreactive mouse IgA monoclonal antibody, full-length) (antibody, V domains shown)
VH: QVQLKQSGPGLVKPSQSLSLTCSVTGYSITSGFYWTWIRQFPGNKVEWMGYINYAGNNDYNPSLKDRISITRDTSKNQFFLKLNSVTSEDTATYYCTRGTGRIEYWGQGTSVTVSS
VL: DIKMTQSPSSLAVSVGEKVSMSCKSSQSLLYSYNQKNYLAWYQQAPGQSPKLLIYWASTRESGVPDRFTGSGSGTDFTLTISNVKTEDLAVYYCQQYHSHPLTFGQGTKVEIK
binds: all assays above
